Measured values: the supplement of paper PMC10065799, “High-throughput profiling of sequence recognition by tyrosine kinases and SH2 domains using bacterial peptide display” (eLife, 2023)

test system: Fer (mouse); experiment: phosphorylation enrichment, bacterial display (enrichment ratio); higher = better substrate or ligand; peptides without Tyr show the background
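Also: 11-residue human phosphosite peptides and single-mutation variants displayed on the E. coli surface, counted by deep sequencing, each peptide's frequency after selection divided by its frequency in the unselected input library; frequency after pTyr selection over input frequency; kinase dosed for 20-30% of maximal phosphorylation in three min.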

First: FKGKNYKPLDL [RPL35_Y78_K77N_YF]
Second: QQIFTYDSGIH [JUP_Y22_T19I_YF]
The phosphorylation enrichment of the first is lower: 0.471 for the first, 0.653 for the second.

Going from VKPENDRRLDI [VHL_Y175_Y175D] to LAETSYVIVLE [MAGEA1_Y276_K278I], the phosphorylation enrichment rises from 0.43 to 0.734.

First: SRDTRYLVLAV [AMH_Y195]
Second: EEGRVYVFRLS [ITGAE_Y549_YF]
The phosphorylation enrichment of the first is higher: 0.552 for the first, 0.533 for the second.

First: DPLLTYLFPPK [LMNA_Y481_R482L]
Second: ITVCDYTNPCT [MYD88_Y276]
The phosphorylation enrichment of the first is higher: 0.481 for the first, 0.395 for the second.

Going from VDTGVYAVPPP [BCAR1_Y410_S407T] to NCFKFYMSDDI [ATRX_Y204_YF], the phosphorylation enrichment falls from 5.77 to 0.521.

Compared with RLLVIYPWTQR [HBG2_Y36_V35I], SLLLSYFLIKW [NUP160_Y773_P768S_YF] is higher in phosphorylation enrichment: 0.498 for the first, 0.719 for the second.

Compared with AERKLYRNVML [ZNF569_Y33_Q29E], AEEEIYGEFEA [Src_opt_1995] is higher in phosphorylation enrichment: 0.359 for the first, 0.923 for the second.

First: VGRVGYVSGWG [HP_Y280]
Second: VDDEIYFFRKP [PBRM1_Y1289_YF]
The phosphorylation enrichment of the first is lower: 0.395 for the first, 0.652 for the second.

First: FSNPAYYVLEG [INPPL1_Y986_N982S]
Second: DYTEAYNSKIK [CLK1_Y305_P307S]
The phosphorylation enrichment of the first is higher: 0.426 for the first, 0.377 for the second.

Going from IEENGYNTFAS [FGF10_Y161_YF] to LTECGYSFTTT [ACTB_Y198_R196C], the phosphorylation enrichment rises from 0.498 to 0.733.

First: LEKRAYICAHP [ACAD9_Y611]
Second: YAREGYSALPQ [SARS2_Y52]
The phosphorylation enrichment of the first is higher: 0.456 for the first, 0.439 for the second.

Compared with SLDHPYEKPRK [INAVA_Y333], ADNSAYLMGLN [MYH7_Y386_K383N] is higher in phosphorylation enrichment: 0.388 for the first, 0.497 for the second.

First: KAESWYQTKYE [KRT75_Y342_E337K]
Second: FECKWYIPLTD [BCR_Y756_D752E_YF]
The phosphorylation enrichment of the first is lower: 0.57 for the first, 0.592 for the second.

Going from TGDFGYRAPGY [TNS2_Y668] to CTTIYYNYMCN [TP53_Y234_H233Y], the phosphorylation enrichment rises from 0.332 to 2.86.

First: TTICKYSTPME [GUCY2C_Y839]
Second: TPTYPYLLPKS [PLD2_Y580]
The phosphorylation enrichment of the first is higher: 0.351 for the first, 0.286 for the second.

Going from HSLLQYGGSAN [ANK1_Y624_R619H] to NPQKSYFILLY [WAS_Y83_R86L], the phosphorylation enrichment falls from 0.447 to 0.437.

With QPDLLYDHIQP [TRRAP_Y862_F860L] the phosphorylation enrichment was 25.

test system: AncSZ; experiment: as above

Compared with FKGKNYKPLDL [RPL35_Y78_K77N_YF], QQIFTYDSGIH [JUP_Y22_T19I_YF] is higher in phosphorylation enrichment: 0.432 for the first, 1.46 for the second.

First: VKPENDRRLDI [VHL_Y175_Y175D]
Second: LAETSYVIVLE [MAGEA1_Y276_K278I]
The phosphorylation enrichment of the first is lower: 0.675 for the first, 1.8 for the second.

Compared with SRDTRYLVLAV [AMH_Y195], EEGRVYVFRLS [ITGAE_Y549_YF] is higher in phosphorylation enrichment: 0.93 for the first, 1.13 for the second.

Going from DPLLTYLFPPK [LMNA_Y481_R482L] to ITVCDYTNPCT [MYD88_Y276], the phosphorylation enrichment falls from 2.2 to 1.66.

Compared with VDTGVYAVPPP [BCAR1_Y410_S407T], NCFKFYMSDDI [ATRX_Y204_YF] is lower in phosphorylation enrichment: 2.39 for the first, 1.2 for the second.

Compared with RLLVIYPWTQR [HBG2_Y36_V35I], SLLLSYFLIKW [NUP160_Y773_P768S_YF] is lower in phosphorylation enrichment: 1.98 for the first, 1.56 for the second.

Going from AERKLYRNVML [ZNF569_Y33_Q29E] to AEEEIYGEFEA [Src_opt_1995], the phosphorylation enrichment rises from 0.45 to 1.51.

Going from VGRVGYVSGWG [HP_Y280] to VDDEIYFFRKP [PBRM1_Y1289_YF], the phosphorylation enrichment rises from 0.781 to 2.12.

First: FSNPAYYVLEG [INPPL1_Y986_N982S]
Second: DYTEAYNSKIK [CLK1_Y305_P307S]
The phosphorylation enrichment of the first is lower: 0.834 for the first, 0.897 for the second.

Compared with IEENGYNTFAS [FGF10_Y161_YF], LTECGYSFTTT [ACTB_Y198_R196C] is higher in phosphorylation enrichment: 0.952 for the first, 1.09 for the second.

Going from LEKRAYICAHP [ACAD9_Y611] to YAREGYSALPQ [SARS2_Y52], the phosphorylation enrichment falls from 0.943 to 0.678.

Compared with SLDHPYEKPRK [INAVA_Y333], ADNSAYLMGLN [MYH7_Y386_K383N] is higher in phosphorylation enrichment: 0.741 for the first, 0.865 for the second.

First: KAESWYQTKYE [KRT75_Y342_E337K]
Second: FECKWYIPLTD [BCR_Y756_D752E_YF]
The phosphorylation enrichment of the first is lower: 0.763 for the first, 1.23 for the second.

Compared with TGDFGYRAPGY [TNS2_Y668], CTTIYYNYMCN [TP53_Y234_H233Y] is higher in phosphorylation enrichment: 0.545 for the first, 1.54 for the second.

Compared with TTICKYSTPME [GUCY2C_Y839], TPTYPYLLPKS [PLD2_Y580] is lower in phosphorylation enrichment: 0.798 for the first, 0.527 for the second.

Going from HSLLQYGGSAN [ANK1_Y624_R619H] to NPQKSYFILLY [WAS_Y83_R86L], the phosphorylation enrichment rises from 0.579 to 0.958.

With QPDLLYDHIQP [TRRAP_Y862_F860L] the phosphorylation enrichment was 3.04.

target: EPHB2 (UniProt P29323); experiment: as above
Sequence (P29323 whole entry, looked up): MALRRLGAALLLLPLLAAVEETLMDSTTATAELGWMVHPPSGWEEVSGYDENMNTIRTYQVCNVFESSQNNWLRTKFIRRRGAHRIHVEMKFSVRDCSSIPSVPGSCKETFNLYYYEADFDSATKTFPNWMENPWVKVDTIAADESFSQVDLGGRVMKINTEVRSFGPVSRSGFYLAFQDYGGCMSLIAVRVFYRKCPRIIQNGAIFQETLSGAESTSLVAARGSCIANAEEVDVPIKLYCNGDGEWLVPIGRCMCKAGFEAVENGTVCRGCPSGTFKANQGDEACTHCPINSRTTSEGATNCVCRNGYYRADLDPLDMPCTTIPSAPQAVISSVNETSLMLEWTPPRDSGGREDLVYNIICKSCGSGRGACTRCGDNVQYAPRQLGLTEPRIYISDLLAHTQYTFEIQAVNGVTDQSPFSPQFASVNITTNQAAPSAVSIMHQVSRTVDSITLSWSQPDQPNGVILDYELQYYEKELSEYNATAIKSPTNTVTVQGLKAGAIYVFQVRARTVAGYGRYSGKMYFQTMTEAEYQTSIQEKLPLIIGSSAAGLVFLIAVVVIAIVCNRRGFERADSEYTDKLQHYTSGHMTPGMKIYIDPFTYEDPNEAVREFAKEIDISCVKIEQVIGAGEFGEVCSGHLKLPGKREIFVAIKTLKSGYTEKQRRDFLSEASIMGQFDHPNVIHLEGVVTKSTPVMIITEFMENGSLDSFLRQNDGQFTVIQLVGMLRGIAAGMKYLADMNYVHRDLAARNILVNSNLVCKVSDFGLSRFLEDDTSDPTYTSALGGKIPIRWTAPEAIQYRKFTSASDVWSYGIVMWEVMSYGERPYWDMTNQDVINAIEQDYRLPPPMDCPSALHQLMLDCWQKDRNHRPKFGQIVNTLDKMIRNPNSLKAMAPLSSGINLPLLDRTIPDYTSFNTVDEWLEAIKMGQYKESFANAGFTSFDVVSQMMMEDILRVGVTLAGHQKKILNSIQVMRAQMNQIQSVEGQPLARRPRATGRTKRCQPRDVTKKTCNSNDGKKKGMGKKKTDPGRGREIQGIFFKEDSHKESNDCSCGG

First: FKGKNYKPLDL [RPL35_Y78_K77N_YF]
Second: QQIFTYDSGIH [JUP_Y22_T19I_YF]
The phosphorylation enrichment of the first is lower: 0.385 for the first, 0.991 for the second.

First: VKPENDRRLDI [VHL_Y175_Y175D]
Second: LAETSYVIVLE [MAGEA1_Y276_K278I]
The phosphorylation enrichment of the first is lower: 0.438 for the first, 0.99 for the second.

Going from SRDTRYLVLAV [AMH_Y195] to EEGRVYVFRLS [ITGAE_Y549_YF], the phosphorylation enrichment rises from 0.559 to 0.605.

First: DPLLTYLFPPK [LMNA_Y481_R482L]
Second: ITVCDYTNPCT [MYD88_Y276]
The phosphorylation enrichment of the first is higher: 0.781 for the first, 0.691 for the second.

Going from VDTGVYAVPPP [BCAR1_Y410_S407T] to NCFKFYMSDDI [ATRX_Y204_YF], the phosphorylation enrichment falls from 20.2 to 0.53.

First: RLLVIYPWTQR [HBG2_Y36_V35I]
Second: SLLLSYFLIKW [NUP160_Y773_P768S_YF]
The phosphorylation enrichment of the first is lower: 0.639 for the first, 0.788 for the second.

First: AERKLYRNVML [ZNF569_Y33_Q29E]
Second: AEEEIYGEFEA [Src_opt_1995]
The phosphorylation enrichment of the first is lower: 0.408 for the first, 0.75 for the second.

Compared with VGRVGYVSGWG [HP_Y280], VDDEIYFFRKP [PBRM1_Y1289_YF] is higher in phosphorylation enrichment: 0.514 for the first, 0.635 for the second.

Compared with FSNPAYYVLEG [INPPL1_Y986_N982S], DYTEAYNSKIK [CLK1_Y305_P307S] is lower in phosphorylation enrichment: 0.509 for the first, 0.449 for the second.

First: IEENGYNTFAS [FGF10_Y161_YF]
Second: LTECGYSFTTT [ACTB_Y198_R196C]
The phosphorylation enrichment of the first is lower: 0.526 for the first, 0.781 for the second.

Compared with LEKRAYICAHP [ACAD9_Y611], YAREGYSALPQ [SARS2_Y52] is higher in phosphorylation enrichment: 0.455 for the first, 0.459 for the second.

First: SLDHPYEKPRK [INAVA_Y333]
Second: ADNSAYLMGLN [MYH7_Y386_K383N]
The phosphorylation enrichment of the first is lower: 0.467 for the first, 0.566 for the second.

Going from KAESWYQTKYE [KRT75_Y342_E337K] to FECKWYIPLTD [BCR_Y756_D752E_YF], the phosphorylation enrichment rises from 0.524 to 0.723.

First: TGDFGYRAPGY [TNS2_Y668]
Second: CTTIYYNYMCN [TP53_Y234_H233Y]
The phosphorylation enrichment of the first is lower: 0.413 for the first, 4.3 for the second.

First: TTICKYSTPME [GUCY2C_Y839]
Second: TPTYPYLLPKS [PLD2_Y580]
The phosphorylation enrichment of the first is higher: 0.488 for the first, 0.349 for the second.

Going from HSLLQYGGSAN [ANK1_Y624_R619H] to NPQKSYFILLY [WAS_Y83_R86L], the phosphorylation enrichment falls from 0.583 to 0.551.

With QPDLLYDHIQP [TRRAP_Y862_F860L] the phosphorylation enrichment was 18.1.

target: EPHB1 (UniProt P54762); experiment: as above
Sequence (P54762 whole entry, looked up): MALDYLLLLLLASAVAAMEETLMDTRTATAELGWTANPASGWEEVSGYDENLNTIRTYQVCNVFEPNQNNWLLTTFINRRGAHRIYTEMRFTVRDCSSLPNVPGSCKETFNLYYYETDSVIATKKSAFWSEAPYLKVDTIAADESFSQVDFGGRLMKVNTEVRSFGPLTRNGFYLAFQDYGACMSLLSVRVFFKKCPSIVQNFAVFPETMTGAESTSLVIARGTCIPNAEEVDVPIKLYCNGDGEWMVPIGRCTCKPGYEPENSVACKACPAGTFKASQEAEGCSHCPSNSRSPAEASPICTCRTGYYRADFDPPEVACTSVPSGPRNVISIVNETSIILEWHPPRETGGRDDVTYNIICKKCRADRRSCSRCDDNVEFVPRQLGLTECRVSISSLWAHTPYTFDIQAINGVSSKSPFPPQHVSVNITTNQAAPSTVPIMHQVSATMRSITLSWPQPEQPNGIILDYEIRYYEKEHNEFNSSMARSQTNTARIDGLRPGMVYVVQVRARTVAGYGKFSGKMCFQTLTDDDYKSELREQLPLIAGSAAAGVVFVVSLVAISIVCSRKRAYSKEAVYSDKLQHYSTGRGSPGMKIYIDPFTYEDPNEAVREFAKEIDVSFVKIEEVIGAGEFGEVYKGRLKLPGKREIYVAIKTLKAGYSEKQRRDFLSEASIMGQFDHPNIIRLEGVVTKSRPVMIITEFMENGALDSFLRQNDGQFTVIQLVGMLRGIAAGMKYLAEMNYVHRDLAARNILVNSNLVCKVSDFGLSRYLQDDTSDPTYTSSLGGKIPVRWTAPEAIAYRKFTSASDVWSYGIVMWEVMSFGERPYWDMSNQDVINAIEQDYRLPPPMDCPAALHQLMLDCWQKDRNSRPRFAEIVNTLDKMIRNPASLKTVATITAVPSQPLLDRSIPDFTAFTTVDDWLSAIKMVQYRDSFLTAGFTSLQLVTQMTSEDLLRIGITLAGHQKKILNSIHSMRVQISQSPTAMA

Going from FKGKNYKPLDL [RPL35_Y78_K77N_YF] to QQIFTYDSGIH [JUP_Y22_T19I_YF], the phosphorylation enrichment rises from 0.262 to 0.967.

First: VKPENDRRLDI [VHL_Y175_Y175D]
Second: LAETSYVIVLE [MAGEA1_Y276_K278I]
The phosphorylation enrichment of the first is lower: 0.44 for the first, 1.06 for the second.

Going from SRDTRYLVLAV [AMH_Y195] to EEGRVYVFRLS [ITGAE_Y549_YF], the phosphorylation enrichment falls from 0.636 to 0.606.

First: DPLLTYLFPPK [LMNA_Y481_R482L]
Second: ITVCDYTNPCT [MYD88_Y276]
The phosphorylation enrichment of the first is higher: 0.992 for the first, 0.583 for the second.

First: VDTGVYAVPPP [BCAR1_Y410_S407T]
Second: NCFKFYMSDDI [ATRX_Y204_YF]
The phosphorylation enrichment of the first is higher: 8.36 for the first, 0.605 for the second.

Compared with RLLVIYPWTQR [HBG2_Y36_V35I], SLLLSYFLIKW [NUP160_Y773_P768S_YF] is lower in phosphorylation enrichment: 0.836 for the first, 0.691 for the second.

Going from AERKLYRNVML [ZNF569_Y33_Q29E] to AEEEIYGEFEA [Src_opt_1995], the phosphorylation enrichment rises from 0.365 to 0.808.

Going from VGRVGYVSGWG [HP_Y280] to VDDEIYFFRKP [PBRM1_Y1289_YF], the phosphorylation enrichment rises from 0.4 to 0.693.

First: FSNPAYYVLEG [INPPL1_Y986_N982S]
Second: DYTEAYNSKIK [CLK1_Y305_P307S]
The phosphorylation enrichment of the first is higher: 0.614 for the first, 0.446 for the second.

Compared with IEENGYNTFAS [FGF10_Y161_YF], LTECGYSFTTT [ACTB_Y198_R196C] is higher in phosphorylation enrichment: 0.478 for the first, 0.592 for the second.

Compared with LEKRAYICAHP [ACAD9_Y611], YAREGYSALPQ [SARS2_Y52] is lower in phosphorylation enrichment: 0.535 for the first, 0.499 for the second.

Compared with SLDHPYEKPRK [INAVA_Y333], ADNSAYLMGLN [MYH7_Y386_K383N] is higher in phosphorylation enrichment: 0.349 for the first, 0.629 for the second.

Going from KAESWYQTKYE [KRT75_Y342_E337K] to FECKWYIPLTD [BCR_Y756_D752E_YF], the phosphorylation enrichment rises from 0.399 to 0.754.

Going from TGDFGYRAPGY [TNS2_Y668] to CTTIYYNYMCN [TP53_Y234_H233Y], the phosphorylation enrichment rises from 0.387 to 4.95.

Compared with TTICKYSTPME [GUCY2C_Y839], TPTYPYLLPKS [PLD2_Y580] is lower in phosphorylation enrichment: 0.395 for the first, 0.29 for the second.

Going from HSLLQYGGSAN [ANK1_Y624_R619H] to NPQKSYFILLY [WAS_Y83_R86L], the phosphorylation enrichment rises from 0.421 to 0.657.

QPDLLYDHIQP [TRRAP_Y862_F860L] showed a phosphorylation enrichment of 15.2.
